Measurements: PMC12225687

Legend:
Assay in all cases: flow cytometry on cells; PE-labelled pMHC multimer (HLA-A*02:01 with the … peptide) stained on Jurkat J1601 cells (human CD8α/β, TCRα/β CRISPR-KO) electroporated with TCR RNA, after overnight incubation; read-out % multimer+CD8+ cells, averages of two independent replicates
1G4 TCR (human) = molecular target: 1G4 TCR (human)
1G4-c50 TCR (human) = molecular target: 1G4-c50 TCR (human)
1G4-c53c50 TCR (human) = molecular target: 1G4-c53c50 TCR (human)

% of multimer+CD8+ Jurkat cells (1G4 TCR (human)): 90.9%
% of multimer+CD8+ Jurkat cells (1G4-c50 TCR (human)): 99.6%
% of multimer+CD8+ Jurkat cells (1G4-c53c50 TCR (human)): 99.1%
Substance: HLA-A*02:01 with the NY-ESO-1 157-165 peptide …, PE-labelled multimer (from UniProt P61769 21-119) (peptide-MHC)
